Source: article PMC2213684, “Altering coenzyme specificity of Pichia stipitis xylose reductase by the semi-rational approach CASTing” (Microbial Cell Factories, 2007)

Assays:
purified protein [1] = substrate: NC(=O)C1=CN([C@@H]2O[C@H](COP(=O)(O)OP(=O)(O)OC[C@H]3O[C@@H](n4cnc5c(N)ncnc54)[C@H](OP(=O)(O)O)[C@@H]3O)[C@@H](O)[C@H]2O)C=CC1; experiment: purified protein; assay type: biochemical, Scheffersomyces stipitis; conditions: 50 mM potassium phosphate pH 6.0
purified protein [2] = substrate: NC(=O)C1=CN([C@@H]2O[C@H](COP(=O)(O)OP(=O)(O)OC[C@H]3O[C@@H](n4cnc5c(N)ncnc54)[C@H](O)[C@@H]3O)[C@@H](O)[C@H]2O)C=CC1; experiment: purified protein; assay type: biochemical, Scheffersomyces stipitis; conditions: 50 mM potassium phosphate pH 6.0
[3] = mutant NT-K270R/N272D, 0.5 M xylose

B1: PsXR (wild-type NT-XR), Pichia stipitis xylose reductase (Scheffersomyces stipitis CBS 6054) (protein)
chain: MPSIKLNSGYDMPAVGFGCWKVDVDTCSEQIYRAIKTGYRLFDGAEDYANEKLVGAGVKKAIDEGIVKREDLFLTSKLWNNYHHPDNVEKALNRTLSDLQVDYVDLFLIHFPVTFKFVPLEEKYPPGFYCGKGDNFDYEDVPILETWKALEKLVKAGKIRSIGVSNFPGALLLDLLRGATIKPSVLQVEHHPYLQQPRLIEFAQSRGIAVTAYSSFGPQSFVELNQGRALNTSPLFENETIKAIAAKHGKSPAQVLLRWSSQRGIAIIPKSNTVPRLLENKDVNSFDLDEQDFADIAKLDINLRFNDPWDWDKIPIFV
- Km (purified protein [1]; 0.5 M xylose): 6.2 ± 1.4 µM
- kcat (purified protein [1]; 0.5 M xylose): 27.5 ± 3.28 s⁻¹
- kcat/Km (purified protein [1]; 0.5 M xylose): 4.65e+06 ± 938000 M⁻¹ s⁻¹
- Km (purified protein [2]; 0.5 M xylose): 10.6 ± 0.6 µM
- kcat (purified protein [2]; 0.5 M xylose): 15.4 ± 0.583 s⁻¹
- kcat/Km (purified protein [2]; 0.5 M xylose): 1.46e+06 ± 112000 M⁻¹ s⁻¹

B2: PsXR (wild-type NT-XR), Pichia stipitis xylose reductase (Scheffersomyces stipitis CBS 6054; K270R/N272D) (protein)
chain: MPSIKLNSGYDMPAVGFGCWKVDVDTCSEQIYRAIKTGYRLFDGAEDYANEKLVGAGVKKAIDEGIVKREDLFLTSKLWNNYHHPDNVEKALNRTLSDLQVDYVDLFLIHFPVTFKFVPLEEKYPPGFYCGKGDNFDYEDVPILETWKALEKLVKAGKIRSIGVSNFPGALLLDLLRGATIKPSVLQVEHHPYLQQPRLIEFAQSRGIAVTAYSSFGPQSFVELNQGRALNTSPLFENETIKAIAAKHGKSPAQVLLRWSSQRGIAIIPRSDTVPRLLENKDVNSFDLDEQDFADIAKLDINLRFNDPWDWDKIPIFV
- Km (purified protein [1]; [3]): 142 ± 31 µM
- kcat (purified protein [1]; [3]): 15.9 ± 3.38 s⁻¹
- kcat/Km (purified protein [1]; [3]): 107000 ± 24800 M⁻¹ s⁻¹
- Km (purified protein [2]; [3]): 58 ± 9 µM
- kcat (purified protein [2]; [3]): 17.9 ± 2.07 s⁻¹
- kcat/Km (purified protein [2]; [3]): 313000 ± 40000 M⁻¹ s⁻¹

B3: PsXR (wild-type NT-XR), Pichia stipitis xylose reductase (Scheffersomyces stipitis CBS 6054; K270S/N272P) (protein)
chain: MPSIKLNSGYDMPAVGFGCWKVDVDTCSEQIYRAIKTGYRLFDGAEDYANEKLVGAGVKKAIDEGIVKREDLFLTSKLWNNYHHPDNVEKALNRTLSDLQVDYVDLFLIHFPVTFKFVPLEEKYPPGFYCGKGDNFDYEDVPILETWKALEKLVKAGKIRSIGVSNFPGALLLDLLRGATIKPSVLQVEHHPYLQQPRLIEFAQSRGIAVTAYSSFGPQSFVELNQGRALNTSPLFENETIKAIAAKHGKSPAQVLLRWSSQRGIAIIPSSPTVPRLLENKDVNSFDLDEQDFADIAKLDINLRFNDPWDWDKIPIFV
- Km (purified protein [1]; mutant 1-2F7, 0.5 M xylose): 849 ± 45 µM
- kcat (purified protein [1]; mutant 1-2F7, 0.5 M xylose): 35.2 ± 3.93 s⁻¹
- kcat/Km (purified protein [1]; mutant 1-2F7, 0.5 M xylose): 41700 ± 5000 M⁻¹ s⁻¹
- Km (purified protein [2]; mutant 1-2F7, 0.5 M xylose): 512 ± 22 µM
- kcat (purified protein [2]; mutant 1-2F7, 0.5 M xylose): 18.5 ± 1.3 s⁻¹
- kcat/Km (purified protein [2]; mutant 1-2F7, 0.5 M xylose): 36300 ± 2520 M⁻¹ s⁻¹

B4: PsXR (wild-type NT-XR), Pichia stipitis xylose reductase (Scheffersomyces stipitis CBS 6054; K270S/N272P/R276F/S271G) (protein)
chain: MPSIKLNSGYDMPAVGFGCWKVDVDTCSEQIYRAIKTGYRLFDGAEDYANEKLVGAGVKKAIDEGIVKREDLFLTSKLWNNYHHPDNVEKALNRTLSDLQVDYVDLFLIHFPVTFKFVPLEEKYPPGFYCGKGDNFDYEDVPILETWKALEKLVKAGKIRSIGVSNFPGALLLDLLRGATIKPSVLQVEHHPYLQQPRLIEFAQSRGIAVTAYSSFGPQSFVELNQGRALNTSPLFENETIKAIAAKHGKSPAQVLLRWSSQRGIAIIPSGPTVPFLLENKDVNSFDLDEQDFADIAKLDINLRFNDPWDWDKIPIFV
- Km (purified protein [1]; mutant 2-2C12, 0.5 M xylose): 427 ± 17 µM
- kcat (purified protein [1]; mutant 2-2C12, 0.5 M xylose): 2.63 ± 0.15 s⁻¹
- kcat/Km (purified protein [1]; mutant 2-2C12, 0.5 M xylose): 6170 ± 317 M⁻¹ s⁻¹
- Km (purified protein [2]; mutant 2-2C12, 0.5 M xylose): 147 ± 12 µM
- kcat (purified protein [2]; mutant 2-2C12, 0.5 M xylose): 12 ± 0.95 s⁻¹
- kcat/Km (purified protein [2]; mutant 2-2C12, 0.5 M xylose): 81700 ± 5250 M⁻¹ s⁻¹
